Laboratory results from patent US12692524B2, “Sialyltransferases and their use in producing sialylated oligosaccharides” (Chr. Hansen A/S, priority 2017, dated 2026).

B1: SiaT43: sialyltransferase of Bibersteinia trehalosi USDA-ARS-USMARC-189, acc. AHG84654, SEQ ID NO: 18 (protein, listed as Bibersteinia trehalosi)
chain: MEFCKMATTQKICVYLDYATIPSLNYILHFAQHFEDQETIRLFGLSRFHIPESVIQRYPKGVVQFYPNQEKDFSALLLALKNILIEVKQQQRKCEIELHLNLFHYQLLLLPFLSLYLDTQDYCHLTLKFYDDGSEAISALQELALAPDLAAQIQFEKQQFDELVVKKSFKLSLLSRYFWGKLFESEYIWFNQAILQKAELQILKQEISSSRQMDFAIYQQMSDEQKQLVLEILNIDLNKVAYLKQLMENQPSFLFLGTTLFNITQETKTWLMQMHVDLIQQYCLPSGQFFNNKAGYLCFYKGHPNEKEMNQMILSQFKNLIALPDDIPLEILLLLGVIPSKVGGFASSALFNFTPAQIENIIFFTPRYFEKDNRLHATQYRLMQGLIELGYLDAEKSVTHFEIMQLLTKE
B2: SiaT39: sialyltransferase of Alistipes shahii WAL 8301, acc. YP_007816735, SEQ ID NO: 23 (protein, listed as Alistipes shahii)
chain: MDDGTPSVSINGGTDFLSLDHLARSGKITVNAPAPWSVTLAPENYGQDEKPDWLTLSAEEGPAGYSEIDVTFAENPGPARSASLLFSCDGKTLAFTVSQSAGGTGFDAPDYYFYISVGTMPTLYSGLHLLSHDKPSYVSYERASTFDAAEFPDRAFVYPVADPTGHATNEELRAMSEAMKRRILEINAEDPTAVFGLWVDDLRCRLGYDWFVAQGIDSARVKVTMLSDGTATYNNFHNYFGDAATAEQNWNDYAAEVEALDWNHGGRYPETRAPEEFASYTWPYYLSTRPDYRLMLQNSSLMESSCPFIADRLAAMKMESVQPYELLTALPEASKQQFYRMAKFDYARFAGLFDLSPKKNLIIIGTSHSSAASEQQQAAYVERIIQQYGSDYDIFFKPHPADSSSAGYPDRFEGLTLLPGQMPFEIFVWALLDKIDMIGGYPSTTFISVPLDKVGFLFAADADGLVRPLNILFRDAANVEWIQ
B3: SiaT34: sialyltransferase of Pasteurella multocida PM70, acc. NC_002663, SEQ ID NO: 6 (protein, listed as Pasteurella multocida)
chain: MDKFAEHEIPKAVIVAGNGESLSQIDYRLLPKNYDVFRCNQFYFEERYFLGNKIKAVFFTPGVFLEQYYTLYHLKRNNEYFVDNVILSSFNHPTVDLEKSQKIQALFIDVINGYEKYLSKLTAFDVYLRYKELYENQRITSGVYMCAVAIAMGYTDIYLTGIDFYQASEENYAFDNKKPNIIRLLPDFRKEKTLFSYHSKDIDLEALSFLQQHYHVNFYSISPMSPLSKHFPIPTVEDDCETTFVAPLKENYINDILLPPHFVYEKLGVDKLAAALEHHHHHH
B4: SiaT41: sialyltransferase of Actinobacillus suis ATCC 33415, acc. AIJ32009, SEQ ID NO: 24 (protein, listed as Actinobacillus suis)
chain: MERTPQLQAVDIYIDFATIPSLSYFLHFLKHKHDDQRLRLFSLARFEMPQTLIEQYEGIIQFSRNVEHNVEPLLEQLQTILSQEGKQFELHLHLNLFHSFEMFLNLSPTYTQYKEKISKIVLHLYDDGSEGVMKQYQLQKSSSLVQDLAATKASLVSLFENGEGSFSQIDLIRYVWNAVLETHYYLLSDHFLLDEKLQPLKAELGHYQLLNLSAYQYLSSEDLLWLKQILKIDTELESLMQKLTAQPVYFFSGTTFFNISFEDKQRLANIHAILIREHLDPNSQLFIGEPYLFVFKGHPNSPEINQALREYYPNVIFLPENIPFEILTLLGFSPQKIGGFASTIHVNSEQSKLAKLFFLTSTDEQERQLSDGYIKQYALAQAMLEMQLVSQEQVYYCSLSS
B5: SiaT73: sialyltransferase of Haemophilus somnus 2336, acc. ACA31170, SEQ ID NO: 20 (protein, listed as Haemophilus somnus)
chain: MKYNIKIKAIVIVSSLRMLLIFLMLNKYHLDEVLFVFNEGFELHKKYKIKHYVAIKKKITKFWRLYYKLYFYRFKIDRIPVYGADHLGWTDYFLKYFDFYLIEDGIANFSPKRYEINLTRNIPVFGFHKTVKKIYLTSLENVPSDIRHKVELISLEHLWKTRTAQEQHNILDFFAFNLDSLISLKMKKYILFTQCLSEDRVISEQEKIAIYQHIIKNYDERLLVIKPHPRETTDYQKYFENVFVYQDVVPSELFELLDVNFERVITLFSTAVFKYDRNIVDFYGTRIHDKIYQWFGDIKF
B6: SiaT37: sialyltransferase of Campylobacter jejuni strain 81-176, acc. AAL09368, SEQ ID NO: 16 (protein, listed as Campylobacter jejuni)
chain: MKKVIIAGNGPSLKEIDYSRLPNDFDVFRCNQFYFEDKYYLGKKCKAVFYTPNFFFEQYYTLKHLIQNQEYETELIMCSNYNQAHLENENFVKTFYDYFPDAHLGYDFFKQLKEFNAYFKFHEIYFNQRITSGVYMCAVAIALGYKEIYLSGIDFYQNGSSYAFDTKQENLLKLAPDFKNDRSHYIGHSKNTDIKALEFLEKTYKIKLYCLCPNSLLANFIELAPNLNSNFIIQEKNNYTKDILIPSSEAYGKFSKNINFKKIKIKENVYYKLIKDLLRLPSDIKHYFKGK
B7: SiaT32: sialyltransferase of Alistipes sp. AL-1, acc. WP_032134786, SEQ ID NO: 15 (protein, listed as Alistipes sp.)
chain: MALLSGTAACSDDEVSQNLIVINGGEHFLSLDGLARAGKISVLAPAPWRVTKAAGDTWFRLSATEGPAGYSEVELSLDENPGAARSAQLAFACGDAIVPFRLSQGALSAGYDSPDYYFYVTFGTMPTLYAGIHLLSHDKPGYVFYSRSKTFDPAEFPARAEVTTAADRTADATQAEMEAMAREMKRRILEINSADPTAVFGLYVDDLRCRIGYDWFVAQGIDSARVKVSMLSDGTGTYNNFYNYFGDAATAEQNWESYASEVEALDWNHGGRYPETRSLPEFESYTWPYYLSTRPDYRLVVQDGSLLESSCPFITEKLGEMEIESIQPYEMLSALPESSRKRFYDMAGFDYDKFAALFDASPKKNLIIIGTSHADDASARLQRDYVARIMEQYGAQYDVFFKPHPADTTSAGYETEFPGLTLLPGQMPFEIFVWSLIDRVDMIGGYPSTVFLTVPVDKVRFIFAADAASLVRPLNILFRDATDVEWMQ
B8: SiaT51: sialyltransferase of Photobacterium damselae subsp. damselae CIP 102761, acc. EEZ40509, SEQ ID NO: 32 (protein, listed as Photobacterium damsela)
chain: MKKILTVLSIFILSACNSDNTSLKETVSSNSADVVETETYQLTPIDAPSSFLSHSWEQTCGTPILNESDKQAISFDFVAPELKQDEKYCFTFKGITGDHRYITNTTLTVVAPTLEVYIDHASLPSLQQLIHIIQAKDEYPSNQRFVSWKRVTVDADNANKLNIHTYPLKGNNTSPEMVAAIDEYAQSKNRLNIEFYTNTAHVFNNLPPIIQPLYNNEKVKISHISLYDDGSSEYVSLYQWKDTPNKIETLEGEVSLLANYLAGTSPDAPKGMGNRYNWHKLYDTDYYFLREDYLDVEANLHDLRDYLGSSAKQMPWDEFAKLSDSQQTLFLDIVGFDKEQLQQQYSQSPLPNFIFTGTTTWAGGETKEYYAQQQVNVINNAINETSPYYLGKDYDLFFKGHPAGGVINDIILGSFPDMINIPAKISFEVLMMTDMLPDTVAGIASSLYFTIPADKVNFIVFTSSDTITDREEALKSPLVQVMLTLGIVKEKDVLFWADLPDCSSGVCIDK
B9: SiaT42: sialyltransferase of Actinobacillus capsulatus DSM 19761, acc. WP_018652686, SEQ ID NO: 25 (protein, listed as Actinobacillus capsulatus)
chain: MERIPQLQAVDIYIDFATIPSLSYFLHFLKHKHDHQRLRLFSLARFEMPQTVIEQYEGIIQFSRNVEHNVEQLLEQLQTILSQEGKQFELHLHLNLFHSFEMFLNLSPTYTKYKEKISKIVLHLYDDGSEGVMKQYQLQQSNSLAQDLASTKASLVSLFKNGEGAFSQIDLIRYVWNAVLETHYYLLSDHFLAHEKLQPLKIELGHYQLLNLSAYQYLSSEDLLWLKQILKIDAELESLMHKLTTQPVYFFSGTTFFNISFEDKQRLANIHAILIREHLDPNSQLFIGEPYLFVFKGHPNSPEINQALREYYPNAIFLPENIPFEILTLLGFSPQKIGGFASTIHVNSEQSKLAKLFFLTSTDEQERNRSDGYIKQYALAQAMLEMQLVSQEQVYYCSLSS

Assay: In vivo screening in E. coli #1363/#1730 with lactose as acceptor, sialyllactose identified by TLC
Assay type: cell-based, Escherichia coli BL21(DE3)
Conditions: 1.5 mM lactose, 72 to 96 hours, qualitative via TLC
Outline: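 E. coli BL21(DE3) #1363/#1730 expressing sialyltransferases were grown at 30 °C in mineral salts medium with 2% glucose and induced with 0.3 mM IPTG. After 1 h, 1.5 mM lactose was added, plus 1.5 mM sialic acid for #1730, and incubation ran 72–96 h. Cell lysates were analysed by silica TLC with thymol staining.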

Row | Molecule | Production of sialyllactose in-vivo
1 | B1 | 3′-SL
2 | B2 | 3′-SL
3 | B3 | 3′-SL
4 | B4 | 3′-SL
5 | B5 | 3′-SL
6 | B6 | 3′-SL
7 | B7 | 3′-SL, 6′-SL
8 | B8 | 6′-SL
9 | B9 | 3′-SL

Assay: In vitro sialylation of LNT by protein extracts, LST-a/-b quantified by LC-MS/MS
Assay type: biochemical
Conditions: 5 mM LNT, 10 mM CMP-Neu5Ac, 16 hours, LC-MS/MS; relative quantity; n.d.: not detectable
Outline: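 E. coli BL21(DE3) crude extracts overexpressing sialyltransferases (IPTG 0.3 mM, 12–16 h at 30 °C) incubated 16 h with 5 mM LNT and 10 mM CMP-Neu5Ac in 50 mM Tris-HCl pH 7.5, 5 mM MgCl2. LST-a and LST-b measured by HILIC LC-MS/MS, MRM in ESI negative mode, against commercial standards.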

Row | Molecule | Relative efficacy of sialyltransferases regarding in-vitro production of sialyllacto-N-tetraoses: LST-a | Relative efficacy of sialyltransferases regarding in-vitro production of sialyllacto-N-tetraoses: LST-b
10 | B1 | 21 | 
11 | B2 | 4 | 
12 | B3 | 2.34 × 10^3 | 
13 | B4 | 3 | 
14 | B5 | 15 | 
15 | B6 | 40 | 
16 | B7 | 64 | 
17 | B8 |  | 10
18 | B9 | 3 | 
